Experiments:
c-Src SH2 = experiment: SH2 binding enrichment of the phosphorylated peptide, bacterial display (enrichment ratio); higher = better substrate or ligand; peptides without Tyr show the background
Grb2 SH2 = Grb2 SH2 (UniProt P62993); experiment: as above
SHP2-C SH2 = experiment: as above
Hck = Hck (UniProt P08631); experiment: phosphorylation enrichment, bacterial display (enrichment ratio); higher = better substrate or ligand; peptides without Tyr show the background
AncSZ = experiment: as above
EPHB2 = EPHB2 (UniProt P29323); experiment: as above
c-Abl (mouse) = experiment: as above
Fes = Fes (UniProt P07332); experiment: as above
Fer (mouse) = experiment: as above
Fyn = Fyn (UniProt P06241); experiment: as above
EPHB1 = EPHB1 (UniProt P54762); experiment: as above
Jak2 = Jak2 (UniProt O60674); experiment: as above
MERTK = MERTK (UniProt Q12866); experiment: as above
FGFR3 = FGFR3 (UniProt P22607); experiment: as above
FGFR1 = FGFR1 (UniProt P11362); experiment: as above
c-Src = experiment: as above
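Throughout, for SH2 binding enrichment of the phosphorylated peptide, bacterial display: peptide library displayed on the E. coli surface as eCPX fusions, selected cells deep-sequenced, score is each peptide's frequency after selection divided by its frequency in the input.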
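Throughout, for phosphorylation enrichment, bacterial display: 11-residue human phosphosite peptides and single-mutation variants displayed on the E. coli surface, counted by deep sequencing, each peptide's frequency after selection divided by its frequency in the unselected input library; frequency after pTyr selection over input frequency; kinase dosed for 20-30% of maximal phosphorylation in three min.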

Chain of EPHB1 (P54762 whole entry, looked up): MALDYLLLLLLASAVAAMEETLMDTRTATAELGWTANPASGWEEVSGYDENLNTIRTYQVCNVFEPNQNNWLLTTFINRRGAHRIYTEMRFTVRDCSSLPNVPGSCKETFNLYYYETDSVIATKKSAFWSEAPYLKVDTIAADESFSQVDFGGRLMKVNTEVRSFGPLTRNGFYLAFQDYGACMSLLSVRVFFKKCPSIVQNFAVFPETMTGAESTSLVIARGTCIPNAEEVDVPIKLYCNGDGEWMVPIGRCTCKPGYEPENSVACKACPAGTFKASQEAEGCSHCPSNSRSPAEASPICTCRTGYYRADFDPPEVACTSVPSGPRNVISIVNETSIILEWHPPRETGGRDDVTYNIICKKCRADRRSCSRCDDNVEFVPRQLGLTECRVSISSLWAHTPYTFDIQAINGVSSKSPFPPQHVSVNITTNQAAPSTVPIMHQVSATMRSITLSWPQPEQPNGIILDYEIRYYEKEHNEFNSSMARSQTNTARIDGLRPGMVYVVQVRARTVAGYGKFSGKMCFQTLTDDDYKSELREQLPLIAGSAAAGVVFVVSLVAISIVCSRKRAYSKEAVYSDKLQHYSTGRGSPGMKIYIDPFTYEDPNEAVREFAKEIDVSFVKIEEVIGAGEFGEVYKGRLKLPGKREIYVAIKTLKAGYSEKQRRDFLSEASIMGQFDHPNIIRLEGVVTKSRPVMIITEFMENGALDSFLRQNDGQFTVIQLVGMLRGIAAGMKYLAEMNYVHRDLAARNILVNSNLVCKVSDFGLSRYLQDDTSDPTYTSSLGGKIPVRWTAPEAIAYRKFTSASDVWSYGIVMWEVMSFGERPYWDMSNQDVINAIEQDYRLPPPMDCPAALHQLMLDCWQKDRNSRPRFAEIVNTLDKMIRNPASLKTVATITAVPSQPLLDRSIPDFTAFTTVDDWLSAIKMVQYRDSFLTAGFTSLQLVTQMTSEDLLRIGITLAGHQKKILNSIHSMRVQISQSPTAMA
Chain of MERTK (Q12866 whole entry, looked up): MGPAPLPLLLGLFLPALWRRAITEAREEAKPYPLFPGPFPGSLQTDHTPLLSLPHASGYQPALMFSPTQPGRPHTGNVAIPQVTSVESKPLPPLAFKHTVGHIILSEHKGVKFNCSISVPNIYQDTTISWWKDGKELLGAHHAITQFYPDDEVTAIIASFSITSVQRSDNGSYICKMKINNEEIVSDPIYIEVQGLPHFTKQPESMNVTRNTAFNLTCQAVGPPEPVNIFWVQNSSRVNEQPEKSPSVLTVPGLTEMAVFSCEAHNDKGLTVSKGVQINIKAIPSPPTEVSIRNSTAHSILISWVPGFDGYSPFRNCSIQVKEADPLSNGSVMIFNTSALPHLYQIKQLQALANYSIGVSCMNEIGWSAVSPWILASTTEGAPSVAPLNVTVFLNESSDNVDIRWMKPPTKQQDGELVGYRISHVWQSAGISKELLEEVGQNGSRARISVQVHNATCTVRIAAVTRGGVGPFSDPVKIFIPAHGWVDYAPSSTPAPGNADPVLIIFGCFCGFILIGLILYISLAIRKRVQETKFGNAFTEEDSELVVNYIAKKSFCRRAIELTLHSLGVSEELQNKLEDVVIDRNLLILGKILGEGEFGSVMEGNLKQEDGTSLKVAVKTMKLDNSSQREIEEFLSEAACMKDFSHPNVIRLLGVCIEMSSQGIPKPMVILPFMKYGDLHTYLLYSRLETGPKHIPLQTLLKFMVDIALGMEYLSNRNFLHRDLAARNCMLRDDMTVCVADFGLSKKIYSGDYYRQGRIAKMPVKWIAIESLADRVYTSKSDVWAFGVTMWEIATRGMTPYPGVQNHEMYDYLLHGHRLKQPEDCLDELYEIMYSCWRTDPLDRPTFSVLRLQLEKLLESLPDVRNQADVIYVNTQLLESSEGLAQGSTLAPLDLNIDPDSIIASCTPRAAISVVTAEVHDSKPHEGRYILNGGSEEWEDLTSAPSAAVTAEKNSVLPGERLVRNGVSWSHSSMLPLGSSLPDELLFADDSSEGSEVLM
Chain of Fyn (P06241 whole entry, looked up): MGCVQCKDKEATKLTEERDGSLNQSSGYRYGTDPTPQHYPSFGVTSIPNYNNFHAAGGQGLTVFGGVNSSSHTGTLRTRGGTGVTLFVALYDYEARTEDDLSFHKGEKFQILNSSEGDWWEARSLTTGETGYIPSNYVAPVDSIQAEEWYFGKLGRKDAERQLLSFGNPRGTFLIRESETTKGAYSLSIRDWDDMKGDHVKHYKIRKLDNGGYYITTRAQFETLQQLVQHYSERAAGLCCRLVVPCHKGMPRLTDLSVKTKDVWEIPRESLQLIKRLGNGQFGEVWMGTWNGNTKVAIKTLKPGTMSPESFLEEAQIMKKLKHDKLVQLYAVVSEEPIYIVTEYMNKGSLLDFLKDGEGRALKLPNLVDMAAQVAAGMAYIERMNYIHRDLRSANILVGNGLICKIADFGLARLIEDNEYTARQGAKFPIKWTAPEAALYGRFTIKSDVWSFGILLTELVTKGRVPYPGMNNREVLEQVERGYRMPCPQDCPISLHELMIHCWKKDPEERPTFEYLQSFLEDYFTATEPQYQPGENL
Chain of FGFR1 (P11362 whole entry, looked up): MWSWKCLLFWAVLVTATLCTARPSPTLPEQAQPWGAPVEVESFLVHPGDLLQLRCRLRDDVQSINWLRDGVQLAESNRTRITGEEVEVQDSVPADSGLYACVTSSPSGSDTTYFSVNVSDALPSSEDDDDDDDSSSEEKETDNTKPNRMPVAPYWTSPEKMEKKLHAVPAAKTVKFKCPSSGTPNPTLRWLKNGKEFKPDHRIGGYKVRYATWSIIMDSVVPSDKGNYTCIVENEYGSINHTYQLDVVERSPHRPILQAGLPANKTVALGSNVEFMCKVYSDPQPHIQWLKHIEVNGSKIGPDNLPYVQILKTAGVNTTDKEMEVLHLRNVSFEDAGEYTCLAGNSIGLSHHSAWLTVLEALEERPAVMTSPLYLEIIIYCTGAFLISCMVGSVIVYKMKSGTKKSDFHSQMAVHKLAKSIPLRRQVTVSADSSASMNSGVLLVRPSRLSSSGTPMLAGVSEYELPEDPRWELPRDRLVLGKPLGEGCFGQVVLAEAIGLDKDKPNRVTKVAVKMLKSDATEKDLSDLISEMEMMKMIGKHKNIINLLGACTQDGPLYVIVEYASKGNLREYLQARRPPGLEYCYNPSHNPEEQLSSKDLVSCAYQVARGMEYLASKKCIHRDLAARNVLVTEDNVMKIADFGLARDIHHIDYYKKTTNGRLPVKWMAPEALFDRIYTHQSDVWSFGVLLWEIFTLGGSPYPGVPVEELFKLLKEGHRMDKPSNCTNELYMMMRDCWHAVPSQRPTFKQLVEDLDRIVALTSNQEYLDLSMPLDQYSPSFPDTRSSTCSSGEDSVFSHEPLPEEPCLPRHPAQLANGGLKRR
Chain of Hck (P08631 whole entry, looked up): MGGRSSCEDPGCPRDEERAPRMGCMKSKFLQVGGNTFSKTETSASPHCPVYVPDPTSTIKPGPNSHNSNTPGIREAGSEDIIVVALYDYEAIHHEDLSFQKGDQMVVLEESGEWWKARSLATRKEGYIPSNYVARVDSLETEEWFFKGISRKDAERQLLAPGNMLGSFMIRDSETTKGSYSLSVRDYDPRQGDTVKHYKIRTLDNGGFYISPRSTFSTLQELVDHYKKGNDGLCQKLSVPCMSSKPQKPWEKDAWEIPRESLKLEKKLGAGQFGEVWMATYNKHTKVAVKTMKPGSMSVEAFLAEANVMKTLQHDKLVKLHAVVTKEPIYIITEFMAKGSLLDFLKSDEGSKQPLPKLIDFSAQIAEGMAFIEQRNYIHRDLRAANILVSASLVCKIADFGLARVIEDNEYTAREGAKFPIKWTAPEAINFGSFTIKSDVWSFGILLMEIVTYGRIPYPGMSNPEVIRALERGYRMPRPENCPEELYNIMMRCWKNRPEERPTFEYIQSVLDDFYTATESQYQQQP
Chain of EPHB2 (P29323 whole entry, looked up): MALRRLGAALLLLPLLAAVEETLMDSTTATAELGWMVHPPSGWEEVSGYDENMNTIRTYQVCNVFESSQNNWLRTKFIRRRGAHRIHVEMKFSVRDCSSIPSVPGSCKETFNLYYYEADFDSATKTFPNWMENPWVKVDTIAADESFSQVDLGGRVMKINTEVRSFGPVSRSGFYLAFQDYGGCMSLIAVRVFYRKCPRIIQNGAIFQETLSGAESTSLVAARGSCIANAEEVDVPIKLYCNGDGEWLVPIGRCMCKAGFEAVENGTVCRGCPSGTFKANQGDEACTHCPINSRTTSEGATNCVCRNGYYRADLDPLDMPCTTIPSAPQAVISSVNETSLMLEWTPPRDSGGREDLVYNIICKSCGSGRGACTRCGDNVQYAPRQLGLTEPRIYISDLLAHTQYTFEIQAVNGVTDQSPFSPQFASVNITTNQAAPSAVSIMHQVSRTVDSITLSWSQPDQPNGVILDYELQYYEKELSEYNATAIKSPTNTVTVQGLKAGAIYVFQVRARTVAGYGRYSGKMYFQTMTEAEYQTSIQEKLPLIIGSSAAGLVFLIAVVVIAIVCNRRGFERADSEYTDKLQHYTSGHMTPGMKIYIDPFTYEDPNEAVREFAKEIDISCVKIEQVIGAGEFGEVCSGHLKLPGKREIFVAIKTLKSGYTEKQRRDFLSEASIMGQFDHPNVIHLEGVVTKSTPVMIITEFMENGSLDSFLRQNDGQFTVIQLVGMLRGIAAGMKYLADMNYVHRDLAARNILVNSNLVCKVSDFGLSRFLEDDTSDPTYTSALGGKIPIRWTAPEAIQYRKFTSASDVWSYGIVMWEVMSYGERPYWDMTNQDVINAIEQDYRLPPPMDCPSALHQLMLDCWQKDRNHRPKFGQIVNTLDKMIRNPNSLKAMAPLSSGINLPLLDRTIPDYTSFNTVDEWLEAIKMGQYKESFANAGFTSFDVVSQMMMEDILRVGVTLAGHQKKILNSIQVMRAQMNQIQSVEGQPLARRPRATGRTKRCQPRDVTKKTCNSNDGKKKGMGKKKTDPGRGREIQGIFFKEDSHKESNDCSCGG

| Sequence | SH2 binding enrichment (c-Src SH2) | SH2 binding enrichment (Grb2 SH2) | SH2 binding enrichment (SHP2-C SH2) | phosphorylation enrichment (Hck) | phosphorylation enrichment (AncSZ) | phosphorylation enrichment (EPHB2) | phosphorylation enrichment (c-Abl (mouse)) | phosphorylation enrichment (Fes) | phosphorylation enrichment (Fer (mouse)) | phosphorylation enrichment (Fyn) | phosphorylation enrichment (EPHB1) | phosphorylation enrichment (Jak2) | phosphorylation enrichment (MERTK) | phosphorylation enrichment (FGFR3) | phosphorylation enrichment (FGFR1) | phosphorylation enrichment (c-Src) |
| --- | --- | --- | --- | --- | --- | --- | --- | --- | --- | --- | --- | --- | --- | --- | --- | --- |
| VLTSTYRGGGG [HBA1_Y141_K140T] | 0.452 | 0.84 | 0.645 | 0.377 | 0.575 | 0.376 | 0.425 | 0.628 | 0.385 | 0.38 | 0.315 | 0.509 | 0.367 | 0.483 | 0.361 | 0.394 |
| AGREIYESEKC [TTN_Y4424_D4427E] | 0.844 | 1.15 | 1.09 | 0.495 | 0.856 | 0.585 | 0.708 | 0.925 | 0.47 | 0.525 | 0.427 | 0.846 | 0.547 | 0.638 | 0.535 | 0.59 |
| GREEFYVHFVG [KAT8_Y90_YF] | 0.472 | 0.867 | 0.621 | 0.581 | 1.23 | 0.602 | 0.896 | 1.52 | 0.513 | 0.458 | 0.661 | 1.37 | 0.559 | 0.841 | 0.582 | 0.693 |
| AFLLLCFNDTH [BMP15_Y235_Y235C] | 0.704 | 1.01 | 1 | 0.561 | 1.42 | 0.696 | 1.01 | 1.44 | 0.663 | 0.563 | 0.724 | 1.63 | 0.484 | 0.918 | 0.501 | 0.413 |
| ETAENYLGHTA [HSPA9_Y181] | 0.497 | 0.972 | 0.588 | 0.47 | 0.858 | 0.652 | 0.559 | 0.865 | 0.443 | 0.442 | 0.43 | 0.622 | 0.503 | 0.523 | 0.486 | 0.414 |
| VHSGTYQVMVR [MYBPC3_Y1043_T1046M] | 1.56 | 0.94 | 0.628 | 1.98 | 0.711 | 0.648 | 0.489 | 0.637 | 0.343 | 0.539 | 2.04 | 0.467 | 1.27 | 0.468 | 0.456 | 0.988 |
| DFFDLYGGKKF [PTPN11_Y66_E69K_YF] | 0.428 | 0.967 | 0.775 | 7.26 | 1.01 | 0.519 | 0.69 | 1.02 | 0.499 | 3.04 | 0.44 | 0.974 | 0.489 | 0.616 | 0.57 | 3.49 |
| KKHIPYSEHKS [CSNK1G2_Y206_R207S] | 1.51 | 1.62 | 1.41 | 0.565 | 0.718 | 0.644 | 1.53 | 1.52 | 0.72 | 0.374 | 0.488 | 1.37 | 0.606 | 1.1 | 0.483 | 0.781 |
| LNSFIYSLRNR [OR1A1_Y288_P285S] | 0.59 | 0.732 | 0.578 | 3.1 | 1.3 | 0.653 | 0.866 | 2.02 | 0.693 | 2.42 | 0.617 | 1.02 | 0.733 | 0.671 | 0.618 | 4.01 |
| SSAKTYSRMRL [NBEAL2_Y1835_E1833K] | 0.773 | 0.869 | 0.802 | 0.453 | 0.433 | 0.366 | 0.542 | 0.552 | 0.379 | 0.406 | 0.354 | 0.52 | 0.4 | 0.394 | 0.34 | 0.427 |
| ILGRFYERGSI [PAX5_Y73_T75R_YF] | 0.575 | 0.71 | 1.16 | 0.486 | 0.651 | 0.476 | 0.532 | 0.674 | 0.398 | 0.483 | 0.392 | 0.662 | 0.395 | 0.517 | 0.413 | 0.451 |
| SSDKVCAHQMV [MLH1_Y379_Y379C] | 0.714 | 0.984 | 0.705 | 0.4 | 0.587 | 0.443 | 0.587 | 0.606 | 0.356 | 0.388 | 0.379 | 0.563 | 0.859 | 0.536 | 0.397 | 0.361 |
| FLAVGYHKLHI [IDS_Y225_P228L] | 1.25 | 1.36 | 1.42 | 0.427 | 1.03 | 0.575 | 0.833 | 1.14 | 0.432 | 0.647 | 0.545 | 1.13 | 0.471 | 0.804 | 0.447 | 0.462 |
| SRGLAYPARPA [LEMD2_Y122] | 0.413 | 0.825 | 0.606 | 0.339 | 0.359 | 0.332 | 0.386 | 0.419 | 0.288 | 0.331 | 0.328 | 0.401 | 0.339 | 0.266 | 0.34 | 0.335 |
| HQKKPYCHAHN [NRAP_Y53] | 1.29 | 1.64 | 1.79 | 1.05 | 1.82 | 0.8 | 2.3 | 1.62 | 1.85 | 0.828 | 1.08 | 3.5 | 0.623 | 2.09 | 0.983 | 0.591 |
| GYQPDYGQPAG [SYP_Y278] | 0.52 | 0.657 | 0.702 | 0.409 | 0.701 | 0.378 | 0.556 | 0.671 | 0.38 | 0.384 | 0.442 | 0.564 | 0.334 | 0.551 | 0.465 | 0.342 |

Reference: the supplement of paper PMC10065799, “High-throughput profiling of sequence recognition by tyrosine kinases and SH2 domains using bacterial peptide display” (eLife, 2023)
